{"source": "paper PMC4174439", "about": "(RNA, 2014)", "proteins": {"B1": {"name": "Cd-HfqHis6 (Clostridium difficile Hfq bearing a C-terminal His-tag) (natural protein, Clostridium difficile strain 630, UniProt Q187T2 1-86, looked up)", "chain": "MKNTVLNLQDLFLNNARKERIPVTIYLVNGVQVKGLVKGFDSYIILIEGDNRQQNMIYKHAVSTIQPGKYINLTNQNQNNNNNNNR"}}, "target": "the molecule itself", "experiment": "SDS-PAGE", "data": [{"protein": "B1", "values": [{"measurement": "stoichiometry N", "result": 6}]}]}
